Laboratory results as given in the RNAGym collection of RNA variant scans (doi:10.1073/pnas.2313332121).
Variants at the floor of the assay were thinned out.

B1: TPR 5TU (parent)
chain: GGAUCUUCUCGAUCUAACAAAAAAGACAAAUCUGCCACAAAGCUUGAGAGCAUCUUCGGAUGCAGAGGCGGCAGCCUUCGGUGGCGCGAUAGCGCCAACGUUCUCAACUAUGACACGCAAAACGCGUGCUCCGUUGAAUGGAGUUUAUCAUG

Variants of: B1
Experiment: polymerase ribozyme fitness, log enrichment relative to wild type (log ratio); higher = more active; in vitro selection for triplet polymerase activity
Outline: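 Mutant libraries of each subunit of a heterodimeric triplet polymerase ribozyme were built by PCR and transcribed. Each library went through one round of in vitro selection in triplicate: annealing with biotinylated primer, partner subunit and triplets, frozen incubation at −7 °C, gel excision of extended constructs, streptavidin-bead capture and RT-PCR. Input and output libraries were Illumina-sequenced; only genotypes with ≥10 input reads and ≥1 read per output were kept. Fitness is log2(genotype enrichment/wild-type enrichment), using inverse-variance-weighted replicate averages.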

Row | Variant | polymerase ribozyme fitness (log ratio)
1 | G48A C85A A89U A98U A113G G117A | ≤ -4.2
2 | G48C G84C C85A A110U C125A | ≤ -4.2
3 | G48C G141A | -3.64
4 | G48C G141U | -1.8
5 | A49C A52U G84A C105U G124U | ≤ -4.2
6 | A47G U102C A142C C149U | ≤ -4.2
7 | A49C G94C | -4.16
8 | A49C G50C A91U C96G | ≤ -4.2
9 | G48A G59A A60G A97G | -3.58
10 | G48C C51U C85U C129A U145C | ≤ -4.2
11 | G48U A52U C93A C95U U145A | ≤ -4.2
12 | A49C G50C U53A C79A A137U | ≤ -4.2
13 | A47U G68U | ≤ -4.2
14 | A47U G48U G80C C93U | ≤ -4.2
15 | A49G A60G C85U | -0.602
16 | G48A G92U C123A | -0.538
17 | A49C G86U C96G C123U U146G | ≤ -4.2
18 | A49C A52G G83A U102G U134G | -3.78
19 | A49C C103A | -3.96
20 | G48A C57U G83C U101C | -2.63
21 | G48A A52U U56A U78A A98U U139C | ≤ -4.2
22 | G48C U53G | -3.59
23 | G48A C99U U111A A137G A147C | ≤ -4.2
24 | A47U G124A | 0.304

Row | Variant | polymerase ribozyme fitness (log ratio)
25 | G48A G59A G88C A106G U148C | ≤ -4.2
26 | G48A A52U C75U A91G | ≤ -4.2
27 | A49C U77G A121C U148A | ≤ -4.2
28 | G48C G50U G59U U82A G92C | -3.41
29 | A47U C54U C93U | -2.08
30 | A49C U109G G152U | -4.18
31 | G48C C69A C149U | -2.77
32 | G48C C63U C69U G74A C93A U102G A107G | ≤ -4.2
33 | A49G A52C G59A G84A G94U C103U | ≤ -4.2
34 | A47U U56A C87G A115C G141A | -3.84
35 | A49C C99G | ≤ -4.2
36 | G48A A49C U53A G100A | ≤ -4.2
37 | G48U G83A U134A G136A | -2.44
38 | G48A G59A G86A U104G A110U | ≤ -4.2
39 | A47U U55G | -1.03
40 | A47U U55A | -0.542
41 | A47U C76U | -0.942
42 | G48A G136U | -2.5
43 | G48C G59C A73G C76U C96U U101C | -3.78
44 | G48U G50C C85G A98U C99U C149U | ≤ -4.2
45 | G48C C125G | -0.571
46 | A49C G68A C96U A98C C108G | ≤ -4.2
47 | G48A A60G G84U | -1.73
48 | A47U A89G C116U G133U A138C | -4.12

Row | Variant | polymerase ribozyme fitness (log ratio)
49 | A47U G86A | -1.08
50 | A49C A52G G58C G84A C131G G133C U145A | ≤ -4.2
51 | G48U A106G | -1.48
52 | A49C U82A G86A G126A | ≤ -4.2
53 | G48C C57A C75G G83U A106G A107G A113U | ≤ -4.2
54 | A47U U53A | -1.33
55 | G48U A49C C69G G86A C93U U139G A150G | ≤ -4.2
56 | A49C C54U U55A A91U C108U G152A | ≤ -4.2
57 | A47U C85A U139G | -1.24
58 | G48U G84U | -2.01
59 | A49C A52C C54A G74U C76G C125U | ≤ -4.2
60 | A49C A66C G81C G83U C99U U101G C108U | ≤ -4.2
61 | G48A C96U A98G | -0.496
62 | G48A C108U | ≤ -4.2
63 | G48A C72G | ≤ -4.2
64 | A49C G59A A60G A106G | ≤ -4.2
65 | G48A C76A G94C A106G U127A G141C | ≤ -4.2
66 | A49C U55A A66U C72A C85U | ≤ -4.2
67 | A49C C75U C76A U77G G81U C87U C93U G94A C131G U134G | ≤ -4.2
68 | A49C C103G A110C | ≤ -4.2
69 | A47U A121U A147C C149U | -3.04
70 | A49C G50U G71C G94C G136A U144C | ≤ -4.2
71 | A49C C79A C108U C123A | ≤ -4.2
72 | A47U A73U A147C | -2.13

Row | Variant | polymerase ribozyme fitness (log ratio)
73 | A47U G141A | -1.46
74 | A47U G50C C93A C96G | ≤ -4.2
75 | G48C U53C C87U U145C | -2.69
76 | G48A A106G | -1.77
77 | G48C G143U | -2.25
78 | A49C C87U | -4.01
79 | G48A | -0.217
80 | G48C | 0.0216
81 | G48U | 0.247
82 | A49G A52C C95U C96A C99A | ≤ -4.2
83 | A49C C87A C132A | ≤ -4.2
84 | A49C U55A G143C | ≤ -4.2
85 | G48A A49U G70U C75A G88A | ≤ -4.2
86 | G48C U55A | -0.498
87 | A47U C96A A97G A122C | -1.28
88 | A49C G84C | ≤ -4.2
89 | A47U C54A | -1.93
90 | A49G A52G G68U C69G G100C | ≤ -4.2
91 | A49C G65C G88U C96A | -4.03
92 | G48A C51U | -1.05
93 | G48A C57A C125U | -1.74
94 | G48A C85U A97U U130C A150U | ≤ -4.2
95 | G48C G126U | -0.372
96 | G48C A110C G141U U148G | ≤ -4.2

Row | Variant | polymerase ribozyme fitness (log ratio)
97 | G48A C149U | -1.46
98 | G48C G58A A91G | -3.21
99 | A49C U55A | ≤ -4.2
100 | A49C G68A | ≤ -4.2
101 | A49C G141C | -4.14
102 | A49C G141A | -3.79
103 | A49C A89U A138U | ≤ -4.2
104 | G48A A52U G86U | ≤ -4.2
105 | A49C U56G G65U A73C C87A | ≤ -4.2
106 | G48C U56C A73G C118A | -2.46
107 | A47U C75U | -1.41
108 | A47U C54U C114U | -2.94
109 | A47U G50A G84U A98U | -3.28
110 | A49C C51A C99U C132G | ≤ -4.2
111 | G48A G50A U56G U148C | ≤ -4.2
112 | A47U C57A | 0.807
113 | A47U C69U C93A A107C A115C | ≤ -4.2
114 | G48A C54U G94C | -1.21
115 | A49C A98G | ≤ -4.2
116 | G48C C85A A120G | -2.75
117 | A49C G50C C76U A91U A97U U111C G143C A150U | ≤ -4.2
118 | G48A U55A C57G A66U G83C U90A C108U G124U | ≤ -4.2
119 | A47U A97G A98G C116U A150U | 0.886
120 | A49C A52G C72A | ≤ -4.2

Row | Variant | polymerase ribozyme fitness (log ratio)
121 | A49C C72A C108A U135G | ≤ -4.2
122 | A47U G94A U134G | -1.69
123 | G48A U61A G71A C85G A107U G124U G141U | ≤ -4.2
124 | A49C C54U G86C G88C A138U | ≤ -4.2
125 | G48A G83C | -1.78
126 | G48U G94A U151C | ≤ -4.2
127 | A49C G92U U127C | ≤ -4.2
128 | G48A A52C C85U | -2.93
129 | G48A G86A A89C G94A U151G | ≤ -4.2
130 | G48C C54A A73U C99A A150C | ≤ -4.2
131 | G48U G65A C95U C105U C129G C132U | ≤ -4.2
132 | G48A G83U U134C | -1.42
133 | G48C A115G G133A | -3.85
134 | G48U U82G C96G | -1.48
135 | A49C C93A | ≤ -4.2
136 | G48A C51U C54A U82G A120U | -3.66
137 | A49C A106G | -4.12
138 | G48A U55G A142C | -2.84
139 | G48A G59U G94A C114A C125A | ≤ -4.2
140 | G48C C99U | -1.72
141 | G48C G58C C63A G74C G81A A89U A137C | ≤ -4.2
142 | A47U U56A C99G A121C | -2.02
143 | A47U A60C C125U | -2.64
144 | G48C C57G G67U C85A C93A C96U G140C | ≤ -4.2

Row | Variant | polymerase ribozyme fitness (log ratio)
145 | G48A G50C | -3.83
146 | G48A G88A U134C U144G | ≤ -4.2
147 | A49C G68C G81C C93A G126A | ≤ -4.2
148 | A47U A64G G67A | ≤ -4.2
149 | G48C A49C C63U G86A C149A | ≤ -4.2
150 | G48C C51U C69A C116G | ≤ -4.2
151 | A49C U61G G62A G81C | -4.13
152 | G48C C85U G94U C96U U144C | -3.25
153 | G48U C118G | -0.339
154 | G48C U55A A107U U111G | ≤ -4.2
155 | A49C G84C U90G C103G A115U | ≤ -4.2
156 | A47U C96G C116U | -0.28
157 | G48A G59U C87U A97U G136A | -1.99
158 | A49C G62C U139C | ≤ -4.2
159 | A49C C95U C96G | -3.85
160 | G48U A73G A122C U146C | -0.965
161 | A49C U53A C54A C87U U102C | ≤ -4.2
162 | G48U A142U | -2.92
163 | G48A G86U C95U C123A | -2.89
164 | A47U G92U | -0.338
165 | G48A C57G A60G C63A C99G | ≤ -4.2
166 | A49C A89U G92C U104G U127G A142G | ≤ -4.2
167 | A47U U55A A89G A120U U144G | -0.697
